The nature of assay [1]: Cell lysate reaction of pMT enzymes with psi-ionone, irones quantified by HS-SPME-GCMS. Format: biochemical. Particulars: for fold change in cis-α-irone produced: AUC vs non-mutated (=1). The procedure, abridged:
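pMT1 site-saturation mutants were expressed in E. coli BL21(DE3) and lysed, and lysates were incubated 2 days at 28 °C with 0.2 mM SAM and 10 mg/L psi-ionone (plus caryophyllene) in 50 mM Tris pH 7, 10 mM MgCl2. Cis-α-irone was measured by HS-SPME-GCMS peak area and given as fold change over non-mutated enzyme.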

Assay [2] can be described thus: In vivo cis-α-irone production from glucose/glycerol in strain 2O31 cultures. The format is cell-based, Escherichia coli. Particulars: pMT plasmid transformed into strain 2O31; 2 days. An excerpt:
The advantage of in vivo biotransformation is that microbial cells can regenerate expensive co-factors rendering the scale-up bioprocess more cost-effective. […] Thus, pMT was incorporated into our psi-ionone producing microbe^7,8, to synthesize cis-α-irone from cheap renewable carbon sources (glucose/glycerol) (FIG. 4 and FIG. 19). To achieve high productivity, the psi-ionone production was first optimized by multidimensional heuristic process (MHP)^15, and strain 2O31 was identified to be the highest producer for psi-ionone (FIG. 19b). 2O31 was used as the base strain to probe cis-α-irone production in vivo (Table 5). Moreover, to improve the plasmid stability, auxotrophic strain was used with chemically defined media^1. The plasmid carrying pMT1, pMT7 or pMT10 was transformed into the strain 2O31, and produced less than 0.01, about 2 and about 3 mg/L cis-α-irone respectively in 2 days (FIG. 19d). To further optimize irone production with pMT10, three different culture conditions were tested: no methionine or dodecane added (control); 10 mM methionine added; 10 mM methionine and 20% dodecane added. In the control reaction, approximately 4.8 mg/L or 0.85 mg/L/OD cis-α-irone was produced after 3-day incubation (2O31-pMT10, FIGS. 4c and 4e). […] Lastly, when both methionine and dodecane were added, psi-ionone was accumulated in the organic layer and only ˜0.3 mg/L or ˜0.05 mg/L/OD cis-α-irone was produced (2O31-pMT10, FIGS. 4c, d and e). […] The limited methylation efficiency might be due to insufficient cofactor or SAH inhibition. […] In fact, the total amount of psi-ionone and cis-α-irone decreased (FIG. 4c, and d). As SAM biosynthesis is regulated by metJ in E. coli^16,17, the aforementioned six reactions were subsequently examined under metJ deleted genetic background (2O31, ΔmetJ). An increase in cis-α-irone titer to ˜5.7 mg/L was produced by 2O31 ΔmetJ-pMT10 strain with 10 mM methionine supplementation (FIG. 4c). An increase in specific cis-α-irone titer to ˜1.2 mg/L/OD was produced by 2O31 ΔmetJ-pMT10r strain without methionine supplementation (FIG. 4d). […]

B1: pMT1: wild-type bifunctional methyltransferase and cyclase TleD from Streptomyces blastmyceticus (protein, listed as Streptomyces blastmyceticus)
chain: MPQEARTPQQQVTADEVGDWYDKFGEVYHLTLGESVHCGLWFPPDAPVPQDMELVTMSSQAQDRYTDYLIETLDPKAGQHLLDIGCGTGRTALKAARQRGIAVTGVAVSKEQIAAANRLAAGHGLTERLTFEVADAMRLPYEDESFDCAWAIESLCHMDRAKALGEAWRVLKPGGDLLVLESVVTEELTEPETALFETLYAANVPPRLGEFFDIVSGAGFHTLSLKDLSANLAMTMNVFALGVYSRRAEFTERFGAEFVDGLLAGLGSAQETLIRKTRFFMATLRKPAV
Consider B1, for which the “cis-α-irone content (percentage of cis-α-irone in the irone mixture)” value in assay [1] (cell extracts with psi-ionone) stood at 21%. Further, in assay [1] (cell extracts with psi-ionone), the “trans-α-irones detected (share of irones)” value came to 79%. In addition, the “fold change in cis-α-irone produced” value in assay [1] (pMT1_E153 mutants), in assay [1] (pMT1_M236 mutants), in assay [1] (pMT1_R160 mutants), in assay [1] (pMT1_S182 mutants) and in assay [1] (pMT1_Y200 mutants) was 1.0 each time. Further, the cis-α-irone produced result in assay [2] is “less than 0.01 mg/L”.
